Measurements from patent US20220204643A1 (published 2022).

Legend:
[1] = molecular target: T1, tripartite motif containing 35, transcript variant 1 (human, UniProt Q9UPQ4 1-493)
T1 construct: HuProt array protein, full-length recombinant from yeast; also called TRIM35
T1 sequence: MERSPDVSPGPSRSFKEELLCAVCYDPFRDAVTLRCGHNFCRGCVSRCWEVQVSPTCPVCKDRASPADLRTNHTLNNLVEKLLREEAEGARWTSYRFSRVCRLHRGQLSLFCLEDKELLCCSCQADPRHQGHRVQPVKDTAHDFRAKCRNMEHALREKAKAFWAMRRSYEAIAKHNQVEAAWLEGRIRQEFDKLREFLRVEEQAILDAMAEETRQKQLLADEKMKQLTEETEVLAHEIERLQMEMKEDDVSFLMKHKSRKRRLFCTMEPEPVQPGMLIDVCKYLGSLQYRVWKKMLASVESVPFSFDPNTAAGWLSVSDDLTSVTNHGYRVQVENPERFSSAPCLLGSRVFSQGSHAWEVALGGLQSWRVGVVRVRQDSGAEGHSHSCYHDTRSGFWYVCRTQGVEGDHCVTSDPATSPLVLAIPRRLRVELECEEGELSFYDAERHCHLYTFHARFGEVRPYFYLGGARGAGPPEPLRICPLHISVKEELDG

[2] = molecular target: T2, Killer cell lectin like receptor g2 (human, UniProt A4D1S0 1-409)
T2 construct: HuProt array protein, full-length recombinant from yeast; also called KLRG2
T2 sequence: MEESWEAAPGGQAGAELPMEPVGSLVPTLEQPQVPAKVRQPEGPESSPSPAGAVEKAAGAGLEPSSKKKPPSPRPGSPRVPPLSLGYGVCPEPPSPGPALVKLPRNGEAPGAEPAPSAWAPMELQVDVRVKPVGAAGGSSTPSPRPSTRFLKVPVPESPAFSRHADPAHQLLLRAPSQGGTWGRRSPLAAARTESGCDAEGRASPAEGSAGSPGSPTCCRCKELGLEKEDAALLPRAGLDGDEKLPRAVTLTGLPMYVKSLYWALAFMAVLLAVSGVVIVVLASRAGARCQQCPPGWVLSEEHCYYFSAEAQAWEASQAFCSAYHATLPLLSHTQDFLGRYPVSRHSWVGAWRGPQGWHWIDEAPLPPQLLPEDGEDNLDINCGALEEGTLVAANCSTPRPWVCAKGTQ

[3] = molecular target: T3, FMR1 autosomal homolog 2 (human, UniProt P51116 1-673)
T3 construct: HuProt array protein, full-length recombinant from yeast; also called FXR2

[4] = molecular target: T4, annexin A1 (human, UniProt P04083 2-346)
T4 construct: HuProt array protein, full-length recombinant from yeast; printed 'annexin Al'; also called ANXA1
T4 sequence: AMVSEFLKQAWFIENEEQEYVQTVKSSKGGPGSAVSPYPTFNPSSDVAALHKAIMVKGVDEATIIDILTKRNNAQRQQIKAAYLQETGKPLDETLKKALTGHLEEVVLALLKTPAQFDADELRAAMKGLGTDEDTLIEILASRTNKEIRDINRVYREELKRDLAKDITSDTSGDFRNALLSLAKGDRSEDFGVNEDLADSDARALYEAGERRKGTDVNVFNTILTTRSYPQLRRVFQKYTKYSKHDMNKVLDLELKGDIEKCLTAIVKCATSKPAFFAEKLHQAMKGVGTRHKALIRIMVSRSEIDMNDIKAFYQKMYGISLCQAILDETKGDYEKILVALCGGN

[5] = molecular target: T5, family with sequence similarity 177 member A1, transcript variant 2 (human, UniProt Q8N128 1-213)
T5 construct: HuProt array protein, full-length recombinant from yeast; also called FAM177A1
T5 sequence: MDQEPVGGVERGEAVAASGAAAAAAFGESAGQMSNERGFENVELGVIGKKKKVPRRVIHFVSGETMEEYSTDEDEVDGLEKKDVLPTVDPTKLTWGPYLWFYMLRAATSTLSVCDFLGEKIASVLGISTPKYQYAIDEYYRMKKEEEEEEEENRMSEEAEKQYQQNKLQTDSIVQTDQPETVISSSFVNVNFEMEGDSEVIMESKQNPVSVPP

[6] = molecular target: T6, methyltransferase like 21C (human, UniProt Q5VZV1 1-264)
T6 construct: HuProt array protein, full-length recombinant from yeast; also called METTL21C

[7] = molecular target: T7, hook microtubule tethering protein 2, transcript variant 2 (human, UniProt Q96ED9 1-719)
T7 construct: HuProt array protein, full-length recombinant from yeast; also called HOOK2
T7 sequence: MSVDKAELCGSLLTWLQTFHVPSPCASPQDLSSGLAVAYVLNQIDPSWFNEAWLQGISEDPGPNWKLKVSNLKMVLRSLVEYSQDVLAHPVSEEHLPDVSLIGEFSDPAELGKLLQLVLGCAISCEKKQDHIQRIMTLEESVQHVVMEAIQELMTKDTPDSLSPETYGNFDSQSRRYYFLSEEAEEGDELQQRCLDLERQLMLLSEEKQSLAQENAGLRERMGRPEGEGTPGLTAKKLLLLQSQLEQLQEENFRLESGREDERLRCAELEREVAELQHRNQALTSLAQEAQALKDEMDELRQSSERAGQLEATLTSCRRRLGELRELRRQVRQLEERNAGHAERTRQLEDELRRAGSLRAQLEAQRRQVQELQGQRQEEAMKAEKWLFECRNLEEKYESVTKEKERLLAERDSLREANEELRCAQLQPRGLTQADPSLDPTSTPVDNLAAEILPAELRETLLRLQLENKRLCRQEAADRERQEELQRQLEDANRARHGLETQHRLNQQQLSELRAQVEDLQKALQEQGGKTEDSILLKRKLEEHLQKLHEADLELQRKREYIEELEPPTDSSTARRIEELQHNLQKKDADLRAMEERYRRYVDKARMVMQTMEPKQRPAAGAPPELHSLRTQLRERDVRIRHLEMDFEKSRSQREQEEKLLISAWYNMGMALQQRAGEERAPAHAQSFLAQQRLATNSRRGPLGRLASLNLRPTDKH

[8] = molecular target: T8, hydroxymethylbilane synthase, transcript variant X3 (human, UniProt P08397 18-361)
T8 construct: HuProt array protein, full-length recombinant from yeast; also called HMBS
T8 sequence: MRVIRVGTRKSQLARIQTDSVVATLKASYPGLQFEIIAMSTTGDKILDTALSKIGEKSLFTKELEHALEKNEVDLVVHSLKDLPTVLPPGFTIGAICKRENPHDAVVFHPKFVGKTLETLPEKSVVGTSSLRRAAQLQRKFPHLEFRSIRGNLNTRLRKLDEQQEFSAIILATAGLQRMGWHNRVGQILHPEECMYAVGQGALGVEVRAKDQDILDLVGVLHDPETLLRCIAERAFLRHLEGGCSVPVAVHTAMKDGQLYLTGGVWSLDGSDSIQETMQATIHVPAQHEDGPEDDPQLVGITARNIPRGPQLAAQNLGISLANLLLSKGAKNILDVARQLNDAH

[9] = molecular target: T9, RAN binding protein 10, transcript variant 1 (human, UniProt Q6VN20 2-620)
T9 construct: HuProt array protein, full-length recombinant from yeast; also called RANBP10

[10] = molecular target: T10, Ubiquilin 3 (human, UniProt Q9H347 1-655)
T10 construct: HuProt array protein, full-length recombinant from yeast; also called UBQLN3
T10 sequence: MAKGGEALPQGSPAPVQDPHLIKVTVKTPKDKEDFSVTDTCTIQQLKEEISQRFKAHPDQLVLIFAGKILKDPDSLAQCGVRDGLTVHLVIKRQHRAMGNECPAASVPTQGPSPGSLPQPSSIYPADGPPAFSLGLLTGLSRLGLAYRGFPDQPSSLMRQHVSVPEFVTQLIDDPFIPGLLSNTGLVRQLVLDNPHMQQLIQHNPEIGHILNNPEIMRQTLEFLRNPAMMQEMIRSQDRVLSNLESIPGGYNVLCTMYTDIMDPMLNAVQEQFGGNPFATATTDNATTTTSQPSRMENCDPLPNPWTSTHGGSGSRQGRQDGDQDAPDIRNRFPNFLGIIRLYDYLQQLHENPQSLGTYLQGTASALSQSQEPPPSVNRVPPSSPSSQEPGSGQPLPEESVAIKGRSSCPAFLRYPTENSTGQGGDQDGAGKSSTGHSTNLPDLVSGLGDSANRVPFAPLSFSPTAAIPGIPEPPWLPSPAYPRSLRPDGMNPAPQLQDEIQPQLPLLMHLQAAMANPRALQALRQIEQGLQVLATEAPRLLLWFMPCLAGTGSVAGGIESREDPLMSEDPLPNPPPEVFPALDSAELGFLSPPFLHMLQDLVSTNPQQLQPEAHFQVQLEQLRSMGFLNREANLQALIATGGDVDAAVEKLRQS

[11] = molecular target: T11, ubiquilin 2 (human, UniProt Q9UHD9 2-624)
T11 construct: HuProt array protein, full-length recombinant from yeast; also called UBQLN2

[12] = molecular target: T12, ubiquilin 1, transcript variant 2 (human, UniProt Q9UMX0 2-589)
T12 construct: HuProt array protein, full-length recombinant from yeast; also called UBQLN1
T12 sequence (Q9UMX0 other isoform, or with tags, fused parts or gaps mutant limits assumed): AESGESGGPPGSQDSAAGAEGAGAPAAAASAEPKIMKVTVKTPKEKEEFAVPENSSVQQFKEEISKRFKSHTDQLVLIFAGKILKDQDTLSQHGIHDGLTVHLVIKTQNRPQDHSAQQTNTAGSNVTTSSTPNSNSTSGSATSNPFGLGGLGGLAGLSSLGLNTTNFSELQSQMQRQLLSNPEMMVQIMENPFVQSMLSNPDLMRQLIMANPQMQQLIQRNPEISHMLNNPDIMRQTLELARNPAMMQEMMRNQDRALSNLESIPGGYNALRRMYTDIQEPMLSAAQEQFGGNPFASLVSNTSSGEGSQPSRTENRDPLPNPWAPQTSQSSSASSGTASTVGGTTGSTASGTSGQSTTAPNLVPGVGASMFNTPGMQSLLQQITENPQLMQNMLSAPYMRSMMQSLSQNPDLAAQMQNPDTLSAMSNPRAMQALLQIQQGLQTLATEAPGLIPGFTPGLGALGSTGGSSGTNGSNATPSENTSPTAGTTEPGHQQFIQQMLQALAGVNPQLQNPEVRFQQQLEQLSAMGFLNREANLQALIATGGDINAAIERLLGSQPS

T9 sequence (Q6VN20 2-620 limits assumed, change not shown): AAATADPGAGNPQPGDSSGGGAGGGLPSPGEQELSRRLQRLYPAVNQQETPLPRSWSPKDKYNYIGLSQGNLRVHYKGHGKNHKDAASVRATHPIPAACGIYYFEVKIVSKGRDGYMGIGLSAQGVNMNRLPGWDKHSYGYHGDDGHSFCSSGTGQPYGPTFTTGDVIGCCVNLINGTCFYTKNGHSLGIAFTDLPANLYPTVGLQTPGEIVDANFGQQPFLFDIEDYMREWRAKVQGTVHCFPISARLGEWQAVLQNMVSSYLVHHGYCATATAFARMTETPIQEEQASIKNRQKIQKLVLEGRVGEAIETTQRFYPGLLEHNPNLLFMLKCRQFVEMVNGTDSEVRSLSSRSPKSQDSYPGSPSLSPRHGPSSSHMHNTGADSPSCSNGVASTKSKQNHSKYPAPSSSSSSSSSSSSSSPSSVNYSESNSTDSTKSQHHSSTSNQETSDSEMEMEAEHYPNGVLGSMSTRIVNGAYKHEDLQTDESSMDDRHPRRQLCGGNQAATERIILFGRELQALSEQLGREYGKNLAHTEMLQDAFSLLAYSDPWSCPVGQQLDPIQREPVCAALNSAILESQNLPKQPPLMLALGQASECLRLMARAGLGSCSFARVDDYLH
T6 sequence (Q5VZV1 whole entry): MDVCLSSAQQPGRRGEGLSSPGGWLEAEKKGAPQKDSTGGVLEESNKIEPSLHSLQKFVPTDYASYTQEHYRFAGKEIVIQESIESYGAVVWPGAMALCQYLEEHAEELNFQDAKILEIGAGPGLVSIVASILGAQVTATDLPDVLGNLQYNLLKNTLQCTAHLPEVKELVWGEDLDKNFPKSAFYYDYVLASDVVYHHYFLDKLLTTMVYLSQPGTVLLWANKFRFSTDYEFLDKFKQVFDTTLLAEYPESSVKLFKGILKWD
T3 sequence (P51116 whole entry Q252H): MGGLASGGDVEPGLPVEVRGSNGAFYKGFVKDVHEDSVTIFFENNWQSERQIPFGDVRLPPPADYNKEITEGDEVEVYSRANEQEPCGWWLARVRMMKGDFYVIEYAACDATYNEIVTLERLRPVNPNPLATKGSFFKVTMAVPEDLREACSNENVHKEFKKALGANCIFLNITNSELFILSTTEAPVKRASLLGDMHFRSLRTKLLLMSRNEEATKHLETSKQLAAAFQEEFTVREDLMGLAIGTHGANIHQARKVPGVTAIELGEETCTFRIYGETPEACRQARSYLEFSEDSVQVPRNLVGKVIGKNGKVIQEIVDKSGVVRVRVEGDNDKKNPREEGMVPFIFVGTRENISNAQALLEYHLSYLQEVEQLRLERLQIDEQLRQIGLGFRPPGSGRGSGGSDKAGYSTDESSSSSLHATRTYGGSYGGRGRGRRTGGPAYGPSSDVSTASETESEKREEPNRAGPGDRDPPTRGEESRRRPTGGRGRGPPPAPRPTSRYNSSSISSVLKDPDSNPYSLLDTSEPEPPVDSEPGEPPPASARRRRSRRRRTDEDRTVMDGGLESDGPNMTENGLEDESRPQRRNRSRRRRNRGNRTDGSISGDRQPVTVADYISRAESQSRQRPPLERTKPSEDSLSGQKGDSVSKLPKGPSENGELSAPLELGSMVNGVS
T11 sequence (Q9UHD9 2-624 limits assumed): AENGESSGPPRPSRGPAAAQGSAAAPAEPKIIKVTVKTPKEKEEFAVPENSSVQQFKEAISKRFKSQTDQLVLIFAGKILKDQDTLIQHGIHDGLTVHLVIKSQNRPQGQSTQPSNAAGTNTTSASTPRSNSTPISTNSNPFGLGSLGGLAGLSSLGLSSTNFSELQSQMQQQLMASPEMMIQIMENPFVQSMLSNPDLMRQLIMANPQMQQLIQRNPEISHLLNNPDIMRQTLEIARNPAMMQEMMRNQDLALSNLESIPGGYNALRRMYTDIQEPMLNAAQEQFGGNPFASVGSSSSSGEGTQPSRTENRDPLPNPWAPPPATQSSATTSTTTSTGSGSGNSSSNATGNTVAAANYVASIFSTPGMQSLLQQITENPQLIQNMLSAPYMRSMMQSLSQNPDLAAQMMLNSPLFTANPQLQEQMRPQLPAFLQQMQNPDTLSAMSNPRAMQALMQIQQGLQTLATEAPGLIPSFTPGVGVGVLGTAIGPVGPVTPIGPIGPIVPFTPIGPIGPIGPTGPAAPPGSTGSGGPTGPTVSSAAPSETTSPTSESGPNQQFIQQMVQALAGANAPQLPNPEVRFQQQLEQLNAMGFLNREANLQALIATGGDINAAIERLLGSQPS

B1: TLUA1001 (antibody, V domains shown)
VH: PLQLQESGPGLVKPSETLSLTCSVSGGSIRSSAPFWGWIRQPPGKGLEWIGNIYYNGDTSYSPSLENRVTLFVDTSKNQFSLNLTSVTAADTAVYYCGRIMTPSIDLWGQGKLVTVSS
VL: EIVLTQSPGTLSLSPGERATLSCRASQSISSTYLVWYQQKPGQAPRLLIYAASYRATGIPDRFSGSGSGTDFILTISRLEPEDFAVYYCQQYGSSLTFGGGTKVEIKR
notes: detected with anti-human IgG Fc
binding result [1]: binds | binding result [2]: binds | binding result [3]: binds

B2: TLUA1004 (antibody, V domains shown)
VH: EVQLVESGGGLVQTGGSLRLSCSASGFTFNNYWMHWVRQAPGKGLLWLSRINTDGSRGHYDDSVQGRFTISRDNAKQTVYLQMDGLRAEDTAVYFCARDGYDFRAFDHWGQGVLVTVSS
VL: DIQMTQSPSSLSASVGDKVTMTCRASQFISVYVNWYQQKPGKAPKLLIYTASSLESGVSSRFSGGGSGTDFTLTIRSLQPEDFAIYYCQQTYSTPWTFGPGTRVEIKR
notes: as for B1
binding result [4]: binds

B3: TLUA1016 (antibody, V domains shown)
VH: EVQLLESGGALVQPGGSLRLSCAVSGLTFNRFAMTWVRQAPGKGLEWVSHIGGSGGYTYYADSVKGRFTISRDNSKNTLYLQMNSLRAEDTAVYHCVKLKGIGAMWTYAMDVWGQGTTVTVSS
VL: QSVLTQPPSVSGAPGQRVTIPCTGSSSNLGAGYAVHWYQQLPATTPKLLIYANSSRPSGVPDRFSGSRSDTSASLAITGLQAEDEADYYCQSYDSSLSGYVFGTGTWVTVLS
notes: as for B1
binding result [5]: binds

B4: TLUS1003 (antibody, V domains shown)
VH: QVHLVQSGSEFKKPGASVKISCKTSGYTFTNYAMNWVRQAPGQGLEWVGWINTVTGIPGYAQGFTGRFIISLDTSGRTSYLQINSLQAEDTAVYYCARSGGFGWSRDLDYWGQGTLVTVSS
VL: DIVLTQSPLSLPVTPGEPASISCRSSQSLLHSNGVYYLDWYLLKPGQSPQLVIYMGSSRASGVPDRFSGSGSGTDFRLKISRVEAEDVGIYYCMQALQTPWTFGQGTKVEIKR
notes: as for B1
binding result [6]: binds

B5: TLUS1006 (antibody, V domains shown)
VH: PVHLVQSGAEVRKPGSSVKVSCMASGGSFNTYAVNWVRQAPGQGLEWMGGIIPVFGTTNYAPRFQGRVTITADESTSTVYMELTSLTSEDTAVYYCARDRDSGYERNCLDPWGQGTLVTVSS
VL: DIVMTQSPDSLAVTLGERATINCRSSQTVLYDSNNKNYLAWYQQKPGQPPKLLIYWASIRESGVPDRFSGSGSGTDFTLTINTLQAEDVAIYFCQQYFTTPRTFGQGTKVEIKR
notes: as for B1
binding result [7]: binds | binding result [8]: binds

B6: TMEL1017 (antibody, V domains shown)
VH: EVQLVESGGGLVKPGGSLRLSCAASGFTFSNYNMNWVRQAPGKGLEWVSSISSSSSYIYYADSVKGRFTISRDNAKNSLYLQMNSLRAEDTAVYYCARDALDFDWLLSAGGFDYWGQGTLVTVSS
VL: ASALTQPASVSGSPGQSITISCTGTSSDVGGYNYVSWYQQHPGKAPKLMIYEVSNRPSGVSNRFSGSKSGNTASLTISGLQAEDEADYYCSSYTSSSTLVFGGGTKLTVLG
notes: as for B1
binding result [9]: binds

B7: TMEL1018 (antibody, V domains shown)
VH: PLQLQESGPGLVKPSETLSLTCTVSGGSISSSSYYWGWIRQPPGKGLEWIGSIYYSGSTYYNPSLKSRVTISVDTSKNQFSLKLSSVTAADTAVYSCARLLVGGAFDIWGQGTMVTVSS
VL: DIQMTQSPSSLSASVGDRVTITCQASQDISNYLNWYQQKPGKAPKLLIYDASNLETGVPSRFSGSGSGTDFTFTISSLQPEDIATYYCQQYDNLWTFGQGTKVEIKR
notes: as for B1
binding result [10]: binds | binding result [11]: binds | binding result [12]: binds
